Holding throughout (experiment): cell-based or functional assay
The target in assay [1] is T1, Chryseobacterium defluvii deamidase polypeptide, wildtype, with His-tag (Chryseobacterium defluvii).
T1 chain: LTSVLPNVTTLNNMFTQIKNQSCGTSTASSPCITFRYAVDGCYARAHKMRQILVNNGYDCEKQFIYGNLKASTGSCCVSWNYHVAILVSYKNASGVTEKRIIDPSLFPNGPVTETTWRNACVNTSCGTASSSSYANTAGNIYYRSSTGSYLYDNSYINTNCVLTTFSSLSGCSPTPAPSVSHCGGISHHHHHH

Assay [2] has as its target T2, Chryseobacterium proteolyticum deamidase polypeptide, wildtype, with His-tag (Chryseobacterium proteolyticum) (UniProt Q9AQQ8).
T2 sequence: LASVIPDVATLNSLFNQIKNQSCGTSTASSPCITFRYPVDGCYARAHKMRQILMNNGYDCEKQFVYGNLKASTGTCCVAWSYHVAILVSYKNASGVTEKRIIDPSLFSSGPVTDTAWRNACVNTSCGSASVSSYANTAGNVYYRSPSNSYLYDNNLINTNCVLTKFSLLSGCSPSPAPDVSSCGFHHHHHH

For assay [3], the target named is T3, Chryseobacterium proteolyticum deamidase polypeptide, wildtype, with His-tag (Chryseobacterium proteolyticum, UniProt Q9AQQ8 136-320).
T3 sequence: T2 sequence

Assay [4] has as its target T4, Chryseobacterium gambrini deamidase polypeptide, wildtype, with His-tag (Chryseobacterium gambrini).
T4 chain: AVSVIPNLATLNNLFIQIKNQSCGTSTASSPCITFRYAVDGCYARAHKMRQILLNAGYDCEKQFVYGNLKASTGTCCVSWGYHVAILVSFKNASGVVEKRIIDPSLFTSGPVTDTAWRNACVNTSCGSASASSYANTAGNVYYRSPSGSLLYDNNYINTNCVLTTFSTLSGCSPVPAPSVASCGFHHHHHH

Assay [5] has as its target T5, Chryseobacterium culicis deamidase polypeptide, wildtype, with His-tag (Chryseobacterium culicis).
T5 chain: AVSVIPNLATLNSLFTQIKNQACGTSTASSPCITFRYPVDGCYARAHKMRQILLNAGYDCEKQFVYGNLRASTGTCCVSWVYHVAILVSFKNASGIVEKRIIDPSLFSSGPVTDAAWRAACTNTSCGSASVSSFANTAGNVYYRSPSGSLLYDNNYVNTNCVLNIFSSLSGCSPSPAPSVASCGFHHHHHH

Assay [6] addresses T6, Chryseobacterium sp-62563 deamidase C230H (Chryseobacterium sp-62563).
T6 sequence: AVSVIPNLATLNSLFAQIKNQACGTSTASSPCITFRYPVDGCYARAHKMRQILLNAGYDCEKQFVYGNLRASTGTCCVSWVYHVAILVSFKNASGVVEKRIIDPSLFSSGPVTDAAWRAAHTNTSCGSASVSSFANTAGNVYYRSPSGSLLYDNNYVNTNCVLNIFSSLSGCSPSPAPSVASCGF

The target of assay [7] is T7, Chryseobacterium sp-62563 deamidase polypeptide (second polypeptide, deamidase domain), wildtype (Chryseobacterium sp-62563).
T7 sequence: T6 sequence with H121C

Assay [8] has as its target T8, Chryseobacterium sp-62563 deamidase C169S (Chryseobacterium sp-62563).
T8 sequence: T6 sequence with C60S, H121C

Residue numbers refer to the chain shown, from its start. Numbers in names are those of the source.

B1: Chryseobacterium defluvii propeptide, wildtype (other)
chain: ATNQDVVGKENTSNHVAARDFGKTVPVGINEENGTLKVSFILSAQFYEIKPSKENEEYISLIRQAIQNESPIHVFMKLNSNEIVKVEKGTEEDVKYFRSILTKEVKEENRK
For the molecule B1, the “NanoDSF thermal unfolding temperature” value in assay [1] amounted to 89 ° C.

B2: Chryseobacterium proteolyticum propeptide L100A (protein)
chain: NQEINGKEKLSVNDSKLKDFGKTVPVGIDEENGMIKVSFMLTAQFYEIKPTKENEQYIGMLRQAVKNESPVHIFLKPNSNEIGKVESASPEDVRYFKTIATKEVKEENRK
Take B2: in assay [2], the NanoDSF thermal unfolding temperature turned out to be 80 ° C.

B3: Chryseobacterium proteolyticum propeptide L100G (protein)
chain: B2 chain with A100G
The molecule B3 returned a NanoDSF thermal unfolding temperature in assay [2] of 77.3 ° C.

B4: Chryseobacterium proteolyticum propeptide, wildtype (other)
chain: B2 chain with A100L
Regarding B4, the “NanoDSF thermal unfolding temperature” value in assay [3] amounted to 87.3 ° C.

B5: Chryseobacterium gambrini propeptide, wildtype (other)
chain: NQDPNLVVKENNENAMRDFGSTIPVGIQKEGNVLKVSFIISAQFYEIKDSKENEAFISMIKSAIENETPVHVFLKKNSNEIAKVEKATDEDVTYFKSIFTKEVKEENRK
For B5, in assay [4], the “NanoDSF thermal unfolding temperature” value was 89.3 ° C.

B6: Chryseobacterium culicis propeptide, wildtype (other)
chain: NQDPNLVAKESNEIAMKDFGKTVPVGIEKEEGKFKVSFMVSAQPYHIKDSKENAGYISMIRQAVENETPVHIFLKTNTNEIAKVDKPTDDDIRYFKSVFTKEVKEENRK
Regarding B6, the “NanoDSF thermal unfolding temperature” value in assay [5] was 85.2 ° C.

B7: Chryseobacterium sp-62563 propeptide F99G (protein)
chain: NQDPNLVAKESNETAMKDFGKTVPVGIEKEDGKFKISFMVTAQPYEIKDSKENAAYISMIKTAVENETPIHVFLKANTNEIAKVDKATDDDIRYFKSVGTKEVKEENRK
For the molecule B7, the figures for the Leakage activity in assay [6], in assay [7] and in assay [8] were 0%, 9% and 3%, respectively. The molecule also registered a NanoDSF thermal unfolding temperature in assay [7] of 74.1 ° C. For the same molecule, the Relative activity of maturated deamidase (% initial rate) in assay [7] and in assay [8] was above 100 throughout.

The values above are taken from US20250215412A1 (NOVOZYMES A S, published 2025).
